Data published in patent US20230302148A1, “PHARMACEUTICAL COMPOSITION COMPRISING LONG-ACTING CONJUGATE OF TRIPLE GLUCAGON/GLP-1/GIP RECEPTOR AGONIST” (HANMI PHARM. CO., LTD., priority 2020, published 2023).
Bridges are numbered along the chain shown (N, C = ends). Where no end group is shown, it is not given here. [ ]: non-standard residue; d: D form. The star is where a group is joined. Acetyl(2-(4-imidazolyl)) = O=C(Cc1c[nH]cn1)*; Aib = CC(C)(N)C(=O)O

T1: human GIP receptor (human, UniProt P48546 22-466)
T1 sequence (looked up): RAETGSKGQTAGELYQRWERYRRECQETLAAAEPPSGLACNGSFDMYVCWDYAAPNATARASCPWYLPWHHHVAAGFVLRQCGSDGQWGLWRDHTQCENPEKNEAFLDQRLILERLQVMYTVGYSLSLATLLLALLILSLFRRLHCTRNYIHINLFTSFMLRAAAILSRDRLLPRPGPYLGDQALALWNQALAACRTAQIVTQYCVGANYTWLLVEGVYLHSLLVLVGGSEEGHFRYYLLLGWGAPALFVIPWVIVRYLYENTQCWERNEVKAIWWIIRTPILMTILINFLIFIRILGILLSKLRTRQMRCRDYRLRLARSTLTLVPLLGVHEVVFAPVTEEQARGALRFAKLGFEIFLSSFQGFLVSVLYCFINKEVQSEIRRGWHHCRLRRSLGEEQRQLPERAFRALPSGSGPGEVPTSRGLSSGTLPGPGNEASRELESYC


What was measured:
Experiment in all cases: cell-based or functional assay
human GCG receptor = human GCG receptor (human, UniProt P47871 26-477)
human GIP receptor = target: T1, human GIP receptor
human GLP-1 receptor = human GLP-1 receptor (human, UniProt P43220 24-463)

human GCG receptor, sequence (P47871 26-477): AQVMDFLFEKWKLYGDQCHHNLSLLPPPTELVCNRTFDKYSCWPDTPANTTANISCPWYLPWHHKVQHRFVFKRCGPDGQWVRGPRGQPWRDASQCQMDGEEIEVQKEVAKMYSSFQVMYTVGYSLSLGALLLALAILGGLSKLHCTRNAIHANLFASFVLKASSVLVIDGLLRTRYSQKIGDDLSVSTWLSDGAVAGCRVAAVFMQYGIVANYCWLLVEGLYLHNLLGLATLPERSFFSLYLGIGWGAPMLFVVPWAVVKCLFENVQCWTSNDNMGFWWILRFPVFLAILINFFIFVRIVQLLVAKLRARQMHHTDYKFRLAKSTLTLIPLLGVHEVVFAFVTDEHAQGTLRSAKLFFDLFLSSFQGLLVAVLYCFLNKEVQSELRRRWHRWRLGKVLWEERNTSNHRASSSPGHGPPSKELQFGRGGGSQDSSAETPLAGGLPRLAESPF

Binder | In vitro activity relative to native peptide (%) vs. Glucagon (human GCG receptor) [%] | In vitro activity relative to native peptide (%) vs. GIP (human GIP receptor) [%] | In vitro activity relative to native peptide (%) vs. GLP-1 (human GLP-1 receptor) [%]
{Acetyl(2-(4-imidazolyl))}-[Aib]QGTFTSDYSKYLDEKRQKEFVQWLLNTC (bridge 15-19) [triple agonist of SEQ ID NO: 81] | 0.3 | < 0.1 | 7.8
{Acetyl(2-(4-imidazolyl))}-[Aib]QGTFTSDYSKYLDEKRQKEFVQWLLDTC (bridge 15-19) [triple agonist of SEQ ID NO: 82] | 1.1 | < 0.1 | 9.5
{Acetyl(2-(4-imidazolyl))}-[Aib]QGTFTSDYSIAMDEIHQKDFVNWLLAQC (bridge 15-19) [triple agonist of SEQ ID NO: 85] | < 0.1 | 0.3 | 4.3
{Acetyl(2-(4-imidazolyl))}-[Aib]QGTFTSDYSKYLDEKRQKEFVNWLLAQC (bridge 15-19) [triple agonist of SEQ ID NO: 86] | 0.4 | 0.2 | 28.4
{Acetyl(2-(4-imidazolyl))}-[Aib]QGTFTSDYSIAMDEIHQKDFVNWLLNTC (bridge 15-19) [triple agonist of SEQ ID NO: 87] | < 0.1 | < 0.1 | 0.9
{Acetyl(2-(4-imidazolyl))}-[Aib]QGTFTSDYSKYLDEKRQKEFVQWLLDTKC (bridge 15-19) [triple agonist of SEQ ID NO: 89] | 0.7 | < 0.1 | 7.1
{Acetyl(2-(4-imidazolyl))}-[Aib]EGTFTSDYSIAMDEIHQKDFVNWLLAQKC (bridge 15-19) [triple agonist of SEQ ID NO: 90] | < 0.1 | < 0.1 | 7.4
{Acetyl(2-(4-imidazolyl))}-[Aib]QGTFTSDYSKYLDEKRQKEFVQWLLNTKC (bridge 15-19) [triple agonist of SEQ ID NO: 88] | 0.3 | < 0.1 | 9.6
{Acetyl(2-(4-imidazolyl))}-[Aib]EGTFTSDYSIAMDEIHQKDFVDWLLAEC (bridge 15-19) [triple agonist of SEQ ID NO: 84] | < 0.1 | < 0.1 | 4.2
H[Aib]QGTFTSDVSKYLDGQAAQEFVAWLLAGC [triple agonist of SEQ ID NO: 9] | 0.13 | < 0.1 | 32.1
{Acetyl(2-(4-imidazolyl))}-[Aib]EGTFTSDYSIAMDEIHQKDFVNWLLAQC (bridge 15-19) [triple agonist of SEQ ID NO: 83] | 1.3 | 0.4 | 47.3
{Acetyl(2-(4-imidazolyl))}-[Aib]EGTFTSDYSIAMDEIHQKDFVDWLLAEKC (bridge 15-19) [triple agonist of SEQ ID NO: 91] | 16.8 | 0.3 | 31.9
